Test results published in the supplement of paper PMC10567573.

B1: CLCN6 (parent)
chain: MAGCRGSLCCCCRWCCCCGERETR
B2: RAB40A (parent)
chain: NWLGRPSKVLSLQDLCCRTIVSCT

Variants of: B1
Experiment: protein stability index of a GFP-peptide fusion (GPS, HEK-293T) (PSI 1-6); higher = more stable
Conditions: c terminus: a fixed tail appended
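Note: lentivirally expressed fusions sorted by FACS into six bins by GFP to DsRed ratio, PSI derived from sequencing read proportions per bin multiplied by bin number.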

Protein stability index, by site and new letter:
R21: K 1.79; C 2.56; F 1.06; Y 2.8; M 1.08; Q 1.39; D 2.82; L 1.76; T 2.77; S 2.18; V 1.66; N 1.87; E 2.27; W 1.52; I 1.5; A 2.37
C17: Y 1.97; T 1.27; N 1.52; S 1.45; P 1.8; L 2.55; F 2.29; R 2.67; W 2.41; K 1.89; A 2.48; D 1.96; E 1.8; I 1.62; V 1.41; Q 1.09
C18: V 1.3; P 1.8; D 2.77; L 2.49; W 3.21; H 2.06; G 1.79; T 1.86; A 1.26; Q 2.58; K 1.85; M 1.42; N 1.49; Y 1.84; S 2.47
E22: I 2.15; F 2.16; N 1.48; D 1.92; T 2.09; P 2.12; S 1.65; Q 1.83; M 1.65; R 1.69; K 1.49; H 1.73; C 1.89; L 2.3
T23: P 1.83; M 1.87; Q 1.8; N 2.15; R 1.77; C 2.73; W 2.78; G 1.78; S 2.36; D 2.15; Y 1.79
E20: C 2.16; D 2.27; Y 1.89; I 1.55; F 1.55; T 1.01; S 2.25; Q 1.55; L 2.06; W 1.11; N 2.36; H 1.56; G 2.24; A 1.96; K 2.22; V 1.93; R 2.33
R24: H 2.55; I 1.87; M 1.91; S 2.57; Y 2.44; G 2.44; D 2.79; E 2.95; K 2.78; T 2.71; C 3.05; N 2.74; P 2.38; F 1.79; Q 2.54; L 2.73
G19: T 2.02; W 1.66; A 1.49; Q 1.29; C 1.83; H 1.15; P 2.17; N 1.44; K 1.8; E 1.86; D 2.22; F 2.53; M 2.34; I 1.45; Y 2.41
C16: V 2.02; W 2.86

Variants of: B2
Experiment: as above
Conditions: c terminus: a fixed tail appended

Protein stability index, by site and new letter:
R18: N 2.5; H 1.98; F 1.87; I 1.68; T 2.26; Q 2.26
C16: F 2.44; E 1.9; I 2.17; V 2.19; L 2.02; S 2.31; N 1.61; R 1.75; A 2.5; H 1.58; Q 1.51; P 2.02
N1: V 2.15; Y 1.83; E 2.6; H 2.2; Q 2.29; G 3.03; S 2.36; F 2.16; W 2.22
P6: N 2.66; F 2.17; L 1.76; W 2.11; Y 1.88
L12: W 2.25; N 1.46; F 2.75; K 2.15; M 1.95; T 1.81; V 2.87; R 2.23; I 2.27; E 1.8; C 1.79
I20: H 2.48; A 1.94; V 2.14; F 1.89; D 2.4; R 2.54; S 2.08; Q 2.26; K 2.62; W 2.18; P 2.42
S11: P 2.14; K 2.67; T 2.6; L 1.86; V 2.74; H 1.92
V21: M 2.66; N 2.8; W 2.46; D 3.02; T 2.58; I 2.31; R 3.04; S 2.77
K8: M 1.75; I 2.11; G 2.01; L 2; R 2.65; T 1.88; D 2.1; F 2.35; P 2.29
S22: C 2.59; P 2; R 2.77; I 1.88; N 2.69; G 2.57; L 2.31; K 2.75; A 2.23; F 2.47
L10: P 2.62; T 2.49; I 2.41; H 2.07; E 2.15; G 2.64; S 2.57; M 2.56
C23: E 2.8; P 2.68; F 2.33; M 2.33; L 2.37; T 2.66; Y 2.35; R 2.92; H 2.69
R5: W 3.09; F 2.27; N 2.56; S 2.69; L 2.06; I 2.2; M 2.85
T19: H 2.41; C 2.04; Y 2.23; K 2.69; P 1.86; R 2.19; L 2.16; F 2.26; G 2.07
L3: G 2.69; K 3.05; Y 2.51; R 2.56; E 2.75; W 2.11; C 2.39; S 2.64; M 2.2; I 2.36
D14: V 1.72; H 2.13; K 1.9; L 1.67; C 1.78; A 1.99; N 2.29; R 1.51; F 2.14; E 2.54
Q13: G 2.21; N 1.8; V 2.81; S 2.67; I 2.93; L 2.44; T 2.51; Y 2.42; D 1.61; C 2.42; K 2.86; M 2.12; E 2.41; H 2.62; P 1.68
S7: P 2.27; M 2.03; K 2.59; T 2.41; A 2.24; C 2.21; G 2.15; R 2.02
C17: G 2.34; F 2.53; V 2.6; P 1.74; Y 2.22; S 2.75; Q 3.09; N 2.95
T24: C 2.07; Q 3.19; E 2.58; Y 2.13; K 3.2; S 2.62; D 2.85; V 2.28; W 2.2; R 2.89
G4: T 2.07; S 2.21; E 2.77; M 2.34; H 2.33; L 2.29; Y 2.35
L15: S 1.96; Y 2.15; D 2.02; A 2.15; R 2.51; M 2.13; C 1.89
V9: S 2.05; A 2.31; H 2.21; P 2.09; I 2.36; W 2.16; K 2.29; Q 2.2; M 2.23
W2: G 3.23; N 3.23; H 3.05; F 2.64; A 3.05; E 3.18; R 3; T 3.08
